# Assay results taken from patent US5395750, “Methods for producing proteins which bind to predetermined antigens” (Hoffmann-La Roche Inc., dated 1995).
# Target: HIV-1 tat protein (HIV-1, UniProt P04608)
# Assay: phage binding to tat coated magnetic beads; TR5 also selected in 4 separate screening experiments
binder,measurement,value
"phage TR5 (anti-tat Fv, synthetic single chain antibody displayed on FUSE5 phage) (scFv) scFv: EVQLVESGRGLVQPGGSLRLSCAASGFTFSHFLVAWVRQAPGKGLEWVATYSMISRARVLDGSFNGRYTISRDDSKNTLYLQMNSLRAEDTAVYYCARIGSTHTIPRLSQYGGQGTLVTVSSGGGGSGGGGSGGGGSDIQMTQSPSSLSASVGDRVTITCKLRGPQPHAITWYQQKPGKAPKLLIYYDGQTLVGVPSRFSGSGSGTDFTPTISSLEPEDFATYYCTPTHKIDSPFGQGTKVEIKRT",binding result,binds
